We go through 20 sequences from a protein production outcome set (Wang et al. 2014).

A short description of this data set: label from the status in PepcDB records.
Consider “MRRVLMVNFGVLLLFCFGVLSNSFGQDNGGDSDINSTTAVYIVTLRQASSLHLFQQEAEEVKRVRDQSKHGDTSKFTRPKLQPRNISRSRYWRSRRSAIAQAHDSLLRNALKGEKYIKLYSFHYLINGFAVFVSSQQAETLSRRREVANIVLDFSVRTATTYTPQFMGLPKGAWVKEGGYETAGEGIVIGFIDTGIDPTHPSFNGTDTSQRQYPIPNHFSGVCEVTPDFPSGSCNRKLVGARHFAQSAITRGIFNSSEDYASPFDGDGHGTHTASIAAGNHGVSAVVSGHNFGSASGIAPRAHISVYKALYKSFGGFAADVVAAIDQAAQDGVDILSLSITPNRRPPGVATFFNPLDMAMLSAVKAGIFVVQAAGNTGPSPKSMSSFSPWIFTVGAASHDRDYSNSIVLGNNVSIPGVGLALRTDEGKKYTMISALDALKNKSSVVDKDMYVGECQDYGSFDKDVIRGNLLICSYSIRFVLGLSTIKQALAVAKNLSAKGVVFYMDPYVLGFQINPTPMDMPGIIIPSAEDSKVLLKYYNSSLVRDGTTKEIVRFGAVAAIAGGQNANFSNRAPKIMYYSARGPDPQDSLFNDADILKPNLVAPGNSIWGAWSSAATESTEFEGESFAMMSGTSMAAPHVAGVAALVKQKFRKFSPSAIASALSTTSVLFDNKGEAIMAQRAYANPDQTISPATPFDMGNGFVNATAALDPGLIFDTSFEDYMSFLCGINGSAPVVFNYTGTNCLRNNATISGSDLNLPSITVSKLNNTRTVQRLMTNIAGNETYTVSLITPFDVLINVSPTQFSIASGETKLLSVILTAKRNSSISSFGGIKLLGNAGHIVRIPVSVTVKIASKQ”, for which the protein production entry is given as “failed”.
The same measure for “RETLDNLSEAVAVFGSNGCAQLFNPPFARMWNLSAEALQSQPHIEAIEEWCRPLFDDDVFWQALRGAITGIDDRRHVLLKIERKDGSVLACKTMPLPDGATMLTFQDITDTENVERALRERNEALETADRIKIDFVHHVSYELRSPLTTIIGFA”: “failed”; for “MRADTRDFRALFLGDAPLLDTRAPVEFAKGAFPGAVNLPLMSDAERHKVGLCYKQQGQDAAIALGHRLVSGAVKAERVAAWAAFAQAHPEGYLYCFRGGLRSQISQAWLREEAGIAYPRVIGGYKAMRGFLLETIEQAIAEC”: “failed”.
Regarding “MNIKLKRTLISLVAFSMTCLPFVGTGSSVKAASNDATINVAAKHQTIRGFGASSAWCGALSDTCMDTLYKNAGLDILRVRIAPNEGWNRGDYRAWADELSNAKKVRARGGIVFATPWTPPASMKTNNTTTGANKGSLKPSSYAAYAAYLKTFVKYMSDNGAPLYALSLQNEPDWAPDYDACTWTAQQFHDFLKQYGASLSSTIKIIMPESLGFNPAMSDPTLNDPTTAQYVSIIGGHLYGSPIRDYPLARNKGKDIWMTEHYLEGNDPGTCVKLAKEIHDCMTIGNMNAYVYWWISGDQNGLYNTRTNETYKKTYVMGQFSKFIGNGYSRVDATNSPQSNVYVSAYTGNNKVVIVAINQGTYPVNQSFNVQNSTVSNVSSWVSSGTLNMAKTNSNISAANGRFNASLPAQSVTTFVADLNSTNPTTDPTTNPTPGSTVTLNNGWYYIKNINAQKYLQVASNTGKAGQNVELGSGSGAAGQKWYLTNTGDGYVTLKSALGNYMLDVSYGENKDGSNIQIFNAYSGDAQKFSVKASSKDGQYFVSTKSSNGTKVLDDYNFGTADGTNVCQWTYGGNANQLWAFEPTNN”, the protein production entry is reported as “failed”.
Turning to “MYLRPDEVARVLEKVGFTVDVVTQKAYGYRRGENYVYVNREARMGRTALVIHPTLKERSSTLAEPASDIKTCDHYQQFPLYLAGERHEHYGIPHGFSSRVALERYLNGLFGEAS”, the protein production result is “failed”.
The same measure for “MLQRIGLIFLHNIVVVSNCFYFQAFLDEFTNWSRINPNKARIPMAGDTQGVVGTVSKPCFTAYEMKIGAITFQVATGDIATEQVDVIVNSTARTFNRKSGVSRAILEGAGQAVESECAVLAAQPHRDFIITPGGCLKCKIIIHVPGGKDVRKTVTSVLEECEQRKYTSVSLPAIGTGNAGKNPITVADNIIDAIVDFSSQHSTPSLKTVKVVIFQPELLNIFYDSMKKRDLSASLNFQSTFSMTTCNLPEHWTDMNHQLFCMVQLEPGQSEYNTIKDKFTRTCSSYAIEKIERIQNAFLWQSYQVKKRQMDIKNDHKNNERLLFHGTDADSVPYVNQHGFNRSCAGKNAVSYGKGTYFAVDASYSAKDTYSKPDSNGRKHMYVVRVLTGVFTKGRAGLVTPPPKNPHNPTDLFDSVTNNTRSPKLFVVFFDNQAYPEYLITFTA”: “failed”; for “MKQIRMLAQYYVDLMMKLGLVRFSMLLALALVVLAIVVQMAVTMVLHGQVESIDVIRSIFFGLLITPWAVYFLSVVVEQLEESRQRLSRLVDKLEEMRERDLKLNVQLKDNIAQLNQEIGEREKAEAERETTLEQLKIEMKEREETQIQLEQQSSFLRSFLDASPDLVFYRNEDKEFSGCNRAMELLTGKSEKQLIHLKPQDVYSEEAAEKVLETDEKVFRHNVSLTYEQWLDYPDGRKACFEIRKVPYYDRVGKRRGLMGFGRDITERKRYQDALERASRDKTTFISTISHELRTPLNGIVGLSRILLDTELTSEQEKYLKTIHVSAVTLGNIFNDIIDMDKMERRKVQLDNQPVDFTSFLADLENLSGLQAQQKGLRFVLEPSLPLPHKVITDGTRLRQILWNLISNAVKFTPQGGGVNVRVRYDEGDILHFEVEDSGIGIPEAEQDKIFAMYYQVKDSHGGKPATGTGIGLAVSRRLARNMGGDISVTSQPGKGATFTLTVHAPAIAEEVEDTLAEDDMPLPALNVLLVEDIELNVIVARSVLEKLGNSVDVAMTGKAALEMFEPGEYDLVLLDIQLPDMTGLDISRELKQRFAADELPPLVALTANVLKNKKEYLDAGMDDVLSKPLSVPALTAMIKKFWDAPDEEAQEAPAADLHKADAVLDTDMLEQYIELVGPKLINDGLAVFEKMMPGYMSVLESNLTARDQKGIVEEGHKIKGAAGSIGLRHIQQLGQQIQTPDLPAWSDNVAEWVEEMKSEWQNDVAVLKAWVAKASKK”: “failed”.
Regarding “NYLRDQVVMVGYGEVGRRITKTLMQQEIKVVIAEENREIVEDLRKKGIAAVSGEATEPSVLIQAHIMHARMLILSPMDILDIHRIVDIAKQLNPQIEVLCCAENKEEAEIIRQDEIGLVFYAKEEMAKNMSHHILGQIERAHHLSLGH”, the protein production entry is “failed”.
In the case of “MNISPKAIKVRNIWIGGTEPCICAPVVGEDDRKVLREAEEVCRKQPDLLEWRADFFRAIDDQERVLATANGLRNIAGEIPILFTIRSEREGGQPIPLNEAEVRRLIEAICRSGAIDLVDYELAYGERIADVRRMTEECSVWLVVSRHYFDGTPRKETLLADMRQAERYGADIAKVAVMPKSPEDVLVLLQATEEARRELAIPLITMAMGGLGAITRLAGWLFGSAVTFAVGNQSSAPGQIPIDDVRTVLSILQTYSR”, the protein production entry is reported as “not failed”.
The same measure for “MGTPNDQAVLQAIFNPDTPFGDIVGLDLGEEAEKEEREEDEVFPQAQLEQSKALELQGVMAAEAGDLSTALERFGQAICLLPERASAYNNRAQARRLQGDVAGALEDLERAVELSGGRGRAARQSFVQRGLLARLQGRDDDARRDFERAARLGSPFARRQLVLLNPYAALCNRMLADMMGQLRRPRDSR”: “failed”; for “MVRLEDYGTWDEALKRLEASRKALLALLREADPAWLSAPLREGAWTPLMVAEHVALVEDSTARVLRRLRRLAAGENLPPVPVKPGEFKDGKPQAPEGVRPKGGLSLEEVLALLDRARAFLLEEVAKADPQNPATFPHPFFGELNPLGWLRAAAYHEAHHLKALQASLPR”: “not failed”; for “MTEDRLSAEDKKFLEVERALKEAALNPLRHATEELFGDFLKMENITEICYNGNKVVWVLKNNGEWQPFDVRDRKAFSLSRLMHFARCCASFKKKTIDNYENPILSSNLANGERVQIVLSPVTVNDETISISIRIPSKTTYPHSFFEEQGFYNLLDNKEQAISAIKDGIAIGKNVIVCGGTGSGKTTYIKSIMEFIPKEERIISIEDTEEIVFKHHKNYTQLFFGGNITSADCLKSCLRMRPDRIILGELRSSEAYDFYNVLCSGHKGTLTTLHAGSSEEAFIRLANMSSSNSAARNIKFESLIEGFKDLIDMIVHINHHKQCDEFYIKHR”: “not failed”.
Take “MDISVIDATKVNTETGLHIGESNAPVKMIEFINVRCPYCRKWFEESEELLAQSVKSGKVERIIKLFDKEKESLQRGNVMHHYIDYSAPEQALSALHKMFATQDEWGNLTLEEVATYAEKNLGLKEQKDATLVSAVIAEANAAHIQFVPTIIIGEYIFDESVTEEELRGYIEK”: the protein production entry is “not failed”.
The same measure for “MAYEQFAYVYDELMQDVPYPEWVAWVLEQVEPGKRIADIGCGTGTATLLLADHYEVTGVDLSEEMLEIAQEKAMETNRHVDFWVQDMRELELPEPVDAITILCDSLNYLQTEADVKQTFDSAARLLTDGGKLLFDVHSPYKMETLFNGKTYATHAEQSSYIWFADPGEEPLSVVHELTFFIEGEDGRYDRVDETHHQRTYPPEQYITWLREAGFRVCAVTGDFKSDAPTETAERIFFVAEKI”: “not failed”.
As to “MAVWLKLSLIVLCGCLSCWVGSVWAQPPLPGFAALSAGQYPLADRQLSQAIAHGKATAALYGNRCWVRLSLERYEEAIKDCSVALDLQPHEPETWLNRGLAYYRQGQSQAAIADFDQLLQQSPTDYRAYYNRGLAYLDLAQPEQAIADFQQALERLPATEIGAAVDLHTDRCMGELHRAQPGPAVSACSQALELQPSAARARYLRALAYWQLHQPQAAIADLRQACDAFAQAGATVQLDRARQLLQHWQQQSSLVAQAPRLQSKNWPGAVTYAMDLANCHDRSPLNELEFCCDRAFQQC”, the protein production result was “failed”.
On to “MLSLNQEVHGPKTSEVYGFVGSISIVVATVIFLIWGYVPDKFLESIGIYYYPSKYWAMAMPMYSMVTLLVALVFYIGLNFMSTSKPTSLNTLFDDYSREDVNFLPLMKNGEDRPIDPISDIDITRINDLMFDSHLAK”, for which the protein production result is “failed”.
Turning to “AAGAVRTDPVIHLHGSRSEDEPTTVLVHAGTATIMPYRALITEIRRRSPGLAEVVGVEVPDLSGFLAAPPDGLIERMAADYARALTADGRHRFHVVGYCLGGLIATEVARNLAESGAEVESLTVISSHSPRFRLDDELLAEYSFAVMMGIDPADLGFPDDQYRVAAAADTVLAASPGVLPDGGLAALGGEFEDVASRFRRLADVPRATRIARMCEAVPASAGTYEPDHMTRLFLAFRQSVFAITRYRAEPYAGDITFLRHDGAYPFPGSKDAVTAYWEELTLGDLDIVDIGGDHYSCLSVEHAPGILKTLGELTQGAITR”, the protein production entry is given as “failed”.
For the sequence “MPGIDKLPIEETLEDSPQTRSLLGVFEEDATAISNYMNQLYQAMHRIYDAQNELSAATHLTSKLLKEYEKQRFPLGGDDEVMSSTLQQFSKVIDELSSCHAVLSTQLADAMMFPITQFKERDLKEILTLKEVFQIASNDHDAAINRYSRLSKKRENDKVKYEVTEDVYTSRKKQHQTMMHYFCALNTLQYKKKIALLEPLLGYMQAQISFFKMGSENLNEQLEEFLANIGTSVQNV”, the protein production entry is recorded as “failed”.
Regarding “MTALKPALPDYLGNIRIILTRTSHPANIGSAARAMKTMGLHRLTIVTPNLMATPMTENPPVFNPDDVQSFALPEESFILASGAADVLHNAEIVATLDEALADTTIACALTSRRREITAPLQTPRDLVPELLQAANRGEKVALVFGNETFGLSIEEVRACNRLMTINGNPDYFSLNLAQAVQVVCYEIFSQTDSPMTHLQQEDHAATHEQIKGMLAHMESVMDDIGFFNRRNGERLMRRMQSLFGRANTQTEDIDILRGFFNTVSHRIHKKD”, the protein production result is on record as “failed”.
Consider “AKESEQKVTIDSAKHEKHTKDKEENNSANTVFFDKINDLLVASVKEFEGTVGISYLDLETGEQRSVNGQHEFYTASTIKVPLTMLVADTVASGQKKWTDLIPYNAEEDYEEGTGIIAYNIQPEYPLKTLQEYAITYSDNIAKNMLYDTLGGDAKAKREMYQRYLHKTPSIEEPQFSSEDALVILQKLYTEKATKPDYQAIYDSMKQSVFHERMETPTTQGKVAHKIGSYDEFIHDMGILETPHPFALAIFTKGPDNAKSAAFIASVTDKLWQLQVSEYPNQ”, for which the protein production result is given as “not failed”.
